Reference: publication PMC3630135, “Tenascin C Promiscuously Binds Growth Factors via Its Fifth Fibronectin Type III-Like Domain” (PLoS ONE, 2013)

How the values were obtained:
[1] = biological target: TNCIII1–5 (first five fibronectin type III-like repeats of human tenascin C, with N-terminal transglutaminase substrate and C-terminal 6xHis tag) (UniProt P24821); experiment: SPR; Biacore X100; about 450 RU TNCIII1–5 amine-coupled on Sensor Chip C1, BSA on the control channel; growth factors flowed in PBS with 0.1% BSA at 30 µl/min; Langmuir fit
[2] = biological target: Bone morphogenetic protein (BMP)-2 (human) (UniProt P12643); experiment: ELISA; as a1 but with 4 µM heparin (40-fold excess over 100 nM TNCIII1-5) during the incubation with TNCIII1-5
Chain of Bone morphogenetic protein (BMP)-2 (human) (P12643 283-396): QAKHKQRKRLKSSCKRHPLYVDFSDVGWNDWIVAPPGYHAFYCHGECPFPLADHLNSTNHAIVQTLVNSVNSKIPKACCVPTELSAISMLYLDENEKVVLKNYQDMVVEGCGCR

neurotrophin-3 (human) = neurotrophin-3 (human) (UniProt P20783); experiment: as above
[3] = biological target: Bone morphogenetic protein (BMP)-2 (human) (UniProt P12643); experiment: ELISA; cross-competition: growth factor (50 nM) coated; 10 nM TNCIII1–5 with full length TNC (0, 0.2, 0.6, 1.9, 5.6, […], 50 nM) in PBST, 1 h RT; TNCIII1–5 detected with HRP-anti-HIS; relative to binding without TNC
FGF-2 (human) = FGF-2 (human) (UniProt P09038); experiment: as above
Chain of FGF-2 (human) (P09038 143-288): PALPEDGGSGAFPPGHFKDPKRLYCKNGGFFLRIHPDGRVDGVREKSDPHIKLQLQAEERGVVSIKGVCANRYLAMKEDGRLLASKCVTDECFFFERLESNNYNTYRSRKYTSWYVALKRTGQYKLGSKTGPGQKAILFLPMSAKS

GST-TNCIII5 = biological target: T1, GST-TNCIII5 (human, UniProt P24821 983-1074); experiment: ELISA; GST-TNCIII domains (1 µM in PBS) coated, blocked with 2% BSA; 2 nM PDGF-BB, 1 h RT; detected with anti-PDGF-BB and HRP anti-mouse; details: both partners purified
T1 construct: tenascin C, fifth TNCIII domain, T983–A1074; source: E. coli BL21, purified (Ni-NTA agarose)
T1 sequence (looked up): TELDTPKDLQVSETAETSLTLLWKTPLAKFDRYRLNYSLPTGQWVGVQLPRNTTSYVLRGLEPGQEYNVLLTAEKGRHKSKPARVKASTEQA

Molecule: TGF-β1 (ligand)
- Kd [1]: 20.3 nM
- koff [1]: 0.000237 s⁻¹
- kon [1]: 11700 M⁻¹ s⁻¹

Molecule: TNCIII1–5 (first five fibronectin type III-like repeats of human tenascin C, with N-terminal transglutaminase substrate and C-terminal 6xHis tag) (from UniProt P24821 622-1074) (domain or fragment)
- percent of the original binding retained with 4 µM heparin [2]: 66%
- percent of the original binding retained with 4 µM heparin (neurotrophin-3 (human)): 57%

Molecule: full-length native human tenascin C (from UniProt P24821 23-2201) (natural protein)
- IC50 [3]: > 50 nM
- percent inhibition of TNCIII1–5 binding at 50 nM TNC [3]: 34%
- IC50 (FGF-2 (human)): 5.6 nM

B1: neurotrophin-3 (ligand)
chain: YAEHKSHRGEYSVCDSESLWVTDKSSAIDIRGHQVTVLGEIKTGNSPVKQYFYETRCKEARPVKNGCRGIDDKHWNSQCKTSQTYVRALTSENNKLVGWRWIRIDTSCVCALSRKIGRT
- Kd [1]: 21 nM
- koff [1]: 0.00106 s⁻¹
- kon [1]: 50700 M⁻¹ s⁻¹

B2: PDGF-BB (ligand, human, UniProt P01127 82-190, looked up)
chain: SLGSLTIAEPAMIAECKTRTEVFEISRRLIDRTNANFLVWPPCVEVQRCSGCCNNRNVQCRPTQVQLRPVQVRKIEIVRKKPIFKKATVTLEDHLACKCETVAAARPVT
notes: Two B chains by its name; source: bought: Gibco
- fold binding level against TNCIII4 (GST-TNCIII5): 4 fold
